Data: US12053511B2, “Cystatin C and Cystatin 9 to treat gut inflammation caused by thermal injury” (priority 2016, dated 2024)

B1: rCSTC: human recombinant cystatin C (CST3), cysteine proteinase inhibitor; purchased from R&D Systems (protein, UniProt P01034 27-146, looked up)
Cystatin-C: SSPGKPPRLVGGPMDASVEEEGVRRALDFAVGEYNKASNDMYHSRALQVVRARKQIVAGVNYFLDVELGRTTCTKTQPNLDNCPFHDQPHLKRKAFCSFQIYAVPWQGTMTLSKSTCQDA
B2: rCST9: human recombinant cystatin 9, cysteine proteinase inhibitor; purchased from American Research Products, Inc. (protein, UniProt Q5W186 29-159, looked up)
Cystatin-9: WCSEEEMGGNNKIVQDPMFLATVEFALNTFNVQSKEEHAYRLLRVLSSWREDSMDRKWRGKMVFSMNLQLRQTVCRKFEDDIDNCPFQESLELNNVRQGISFPQVHSCGCCMGCGVGTGAADKAIPRDKGK

Columns and labels:
NDM-1 Kp = experiment: In vitro bacteria viability and growth assay; assay type: cell-based, Klebsiella pneumoniae BAA-2146; details: given individually and in combination
Excerpt: Anti-microbial activity of rCST9/rCSTC against NDM-1 Kp. […] To address this directly, PrestoBlue® was used to determine the viability of rCST9/rCSTC-treated NDM-1 Kp based in the reagents rapid reduction by metabolically active bacteria. […] The most substantial decrease in bacterial growth occurred with 50, 500, and 1000 pg of rCSTs compared to lower doses of 10 and 25 pg of rCSTs (FIGS. 7A-C).
Bacteria preparation. The MDR New Delhi metallo-beta-lactamase-1 (NDM-1) producing Klebsiella pneumoniae BAA-2146™ was purchased from ATCC and expanded for 18 hours in 10 mL of brain heart infusion (BHI) broth while shaking at 37° C. The overnight culture was pelleted by centrifugation and then suspended in PBS. Serial dilutions were performed to obtain the desired concentration. Ten-fold dilutions were plated on BHI agar to confirm experimental dosage.
In vitro bacteria viability and growth assay. As a measure of NDM-1 Kp viability, aliquots were treated with Prestoblue® cell viability reagent (Invivogen) following exposure to CSTs. […] Following incubation, […] of Prestoblue® reagent was added to each sample and incubated for 1 h before quantification of cell viability via absorbance at 570-600 nm measurement (Bio-Tek; Epoch Model). […] Additionally, 100 μL of cultures were plated on BHI plates to quantify colony-forming units (CFU) following an overnight incubation at 37° C. […]

E. coli O157:H7 (ATCC) = experiment: Viability and virulence of pathogenic bacterial strains; assay type: cell-based; details: 50 pg dose
[1] = system: Burkholderia thialandensis (ATCC); experiment: as above; assay type: cell-based; details: 50 pg dose
[2] = system: human monocyte-derived macrophage (MDM); experiment: Macrophage killing of pathogens; assay type: cell-based; details: same five pathogens
[3] = system: Salmonella typhimurium (ATCC); experiment: Viability and virulence of pathogenic bacterial strains; assay type: cell-based; details: 50 pg dose
[4] = system: Pseudomonas aeruginosa (isolate from burn patient wound); experiment: as above; assay type: cell-based; details: 50 pg dose
[5] = system: Klebsellia pneumoniae (isolate from burn patient lung); experiment: as above; assay type: cell-based; details: 50 pg dose
EC 083:H1 and flagellin = experiment: Mouse model of infection and thermal injury, survival; assay type: in vivo, Balb/c mice; details: i.p. 500 pg rCST9 and/or 50 pg rCSTC; 1000 ng flagellin + 1×10^7 CFU EC 083:H1 i.p.; 30% TBSA burn; observed 10 days
Description: Mice were intraperitoneally (i.p.) challenged with 1×10^7 CFU of an intestinal isolate E. coli (EC) and 1000 ng of flagellin then treated i.p. with 500 pg rCST9 and/or 50 pg rCSTC followed by a 30% full-thickness thermal injury (30% TBSA). […] Additional groups of infected, rCST treated and/or thermally injured mice were euthanized at 24 and 48 h post-thermal injury to collect serum and harvest intestinal samples. Cytokines were quantified in the serum and analysis of the gut microbiome.
Female Balb/c mice (n=6 mice/group), weighing 19-21 grams (Jackson Laboratories), were housed in a facility approved by the Association for Assessment and Accreditation for Laboratory Animal Care (AAALAC). Mice were allowed to adjust to their environment for at least seven days prior to the study and given access to food and water throughout the entire study. All animal procedures were approved by University of Texas Medical Branch IACUC and performed humanely with minimal suffering. Briefly, mice were shaved dorsally the morning of experimentation as previously described (8). The mice were given an i.p. challenge of 1000 ng of flagellin and 1×10^7 CFU/mouse of EC 083:H1 and then treated with 500 pg of rCST9 and/or 50 pg of rCSTC. Immediately following treatment, mice were anesthetized with pentobarbital (Nembutal) and subjected to a 30% total body surface area (TBSA) burn injury. […]

Molecule | replication of NDM-1-producing Kp (NDM-1 Kp) | viability and virulence (E. coli O157:H7 (ATCC)) | viability and virulence [1] | MDM killing of pathogens [2] | viability and virulence [3] | viability and virulence [4] | viability and virulence [5] | survival (EC 083:H1 and flagellin)
B1 | inhibited the replication |  |  |  |  |  |  | 
B2 | inhibited the replication | retarded the viability and virulence | retarded the viability and virulence | induced human monocyte-derived macrophage (MDM) killing | retarded the viability and virulence | retarded the viability and virulence | retarded the viability and virulence | did not improve survival
